Test results: publication PMC11604724 (MedComm, 2024)

Assays:
[1] = molecular target: SARS‐CoV‐2 N‐terminal domain (NTD) protein (SARS-CoV-2 WT, UniProt P0DTC2, N-linked glycans (complex glycosylation, migrates at 40-70 kDa)); test: ELISA; settings: both partners purified
[2] = molecular target: Horseradish peroxidase (HRP)‐labeled NTD protein (SARS-CoV-2, WT assumed, UniProt P0DTC2, horseradish peroxidase (HRP) label); test: ELISA; settings: both partners purified
[3] = molecular target: PNGase F‐treated NTD protein (SARS-CoV-2 WT, UniProt P0DTC2, N-linked glycans removed with PNGase F (nearly complete deglycosylation)); test: ELISA; settings: both partners purified
[4] = molecular target: SARS‐CoV‐2 (WT) spike expressed on HEK293T cells (SARS-CoV-2, UniProt P0DTC2); test: flow cytometry on cells; settings: one partner purified

Measured: binding result

B1: mAb 3711 (antibody, V domains shown)
VH: EVQLVESGGGLVKPGRSLRLSCAASGFTFSDYYMSWIRQAPGKGLEWVSYISSSGSTIYYADSVRGRFTISRDNAKNSLYLQMNTLRAEDTAVYYCARGGWELRSLAGGYYGMDVWGQGTTVTVSS
VL: DIVMTQTPFTLSASVGDRVTITCRASQGIRNDLGWYQQKPGKAPKCLIYAASSLLSGVPSRFSGSGSGTEFTLTISSLQPEDFATYYCLQHNSYPWTFGQGTKLEIK
binds: all assays above
